From PMC10250233
Where “and” joins values, the source holds several entries; their conditions need not be identical. Identical values can stand only once.

Legend:
Assay in all cases: fluorescence anisotropy
[1] = test system: RPA Aro1 (human); conditions: FA: 200 mM NaCl, KCl or LiCl, 20 mM HEPES pH 7.4, 1 mM DTT, 22-25 C, 375 or 750 pM oligo, Kd,app +/- SEM; EMSA: 20 mM HEPES pH 7.4, 200 mM KCl, 1 nM 32P oligo
[2] = test system: RPA Aro3 (human); conditions: FA: 200 mM NaCl, KCl or LiCl, 20 mM HEPES pH 7.4, 1 mM DTT, 22-25 C, 375 or 750 pM oligo, Kd,app +/- SEM; EMSA: 20 mM HEPES pH 7.4, 200 mM KCl, 1 nM 32P oligo
[3] = target: RPA WT (RPA70-RPA32-RPA14) (human) (UniProt P27694+P15927+P35244); conditions: FA: 200 mM NaCl, KCl or LiCl, 20 mM HEPES pH 7.4, 1 mM DTT, 22-25 C, 375 or 750 pM oligo, Kd,app +/- SEM; EMSA: 20 mM HEPES pH 7.4, 200 mM KCl, 1 nM 32P oligo
Sequence of RPA WT (RPA70-RPA32-RPA14) (human) (P27694 whole entry, chain 1 of 3): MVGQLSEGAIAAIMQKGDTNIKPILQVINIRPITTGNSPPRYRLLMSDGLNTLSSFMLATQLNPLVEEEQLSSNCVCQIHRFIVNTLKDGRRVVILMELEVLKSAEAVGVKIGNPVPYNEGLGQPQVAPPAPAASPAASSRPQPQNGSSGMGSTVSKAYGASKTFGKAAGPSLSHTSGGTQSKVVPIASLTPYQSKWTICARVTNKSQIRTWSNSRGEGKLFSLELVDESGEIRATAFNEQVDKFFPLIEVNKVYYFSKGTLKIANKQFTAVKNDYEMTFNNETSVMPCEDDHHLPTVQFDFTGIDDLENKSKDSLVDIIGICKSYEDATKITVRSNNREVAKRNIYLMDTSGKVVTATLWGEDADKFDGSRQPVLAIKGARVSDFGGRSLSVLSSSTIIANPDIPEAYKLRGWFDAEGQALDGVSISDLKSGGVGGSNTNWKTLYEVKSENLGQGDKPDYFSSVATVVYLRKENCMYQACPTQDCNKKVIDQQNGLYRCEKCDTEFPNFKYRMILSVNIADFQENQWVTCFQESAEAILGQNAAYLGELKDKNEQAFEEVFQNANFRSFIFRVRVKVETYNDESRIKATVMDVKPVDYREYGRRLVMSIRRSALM
Sequence of RPA WT (RPA70-RPA32-RPA14) (human) (P15927 whole entry, chain 2 of 3): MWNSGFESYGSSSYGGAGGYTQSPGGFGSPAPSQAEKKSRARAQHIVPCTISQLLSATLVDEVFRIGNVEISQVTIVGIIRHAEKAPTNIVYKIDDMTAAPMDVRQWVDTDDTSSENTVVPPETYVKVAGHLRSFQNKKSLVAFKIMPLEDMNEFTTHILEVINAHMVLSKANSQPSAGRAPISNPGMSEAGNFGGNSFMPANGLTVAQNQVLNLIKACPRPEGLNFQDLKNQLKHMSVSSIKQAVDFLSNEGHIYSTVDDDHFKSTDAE
Sequence of RPA WT (RPA70-RPA32-RPA14) (human) (P35244 whole entry, chain 3 of 3): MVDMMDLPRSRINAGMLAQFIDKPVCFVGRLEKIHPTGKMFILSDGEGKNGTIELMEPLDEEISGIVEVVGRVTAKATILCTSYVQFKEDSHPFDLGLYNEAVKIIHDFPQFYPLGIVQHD

[4] = test system: RPA Aro4 (human); conditions: FA: 200 mM NaCl, KCl or LiCl, 20 mM HEPES pH 7.4, 1 mM DTT, 22-25 C, 375 or 750 pM oligo, Kd,app +/- SEM; EMSA: 20 mM HEPES pH 7.4, 200 mM KCl, 1 nM 32P oligo
[5] = test system: RPA AroA (human); conditions: FA: 200 mM NaCl, KCl or LiCl, 20 mM HEPES pH 7.4, 1 mM DTT, 22-25 C, 375 or 750 pM oligo, Kd,app +/- SEM; EMSA: 20 mM HEPES pH 7.4, 200 mM KCl, 1 nM 32P oligo
[6] = target: CST (CTC1-STN1-TEN1) (human) (UniProt Q2NKJ3+Q9H668+Q86WV5); conditions: FA: 200 mM NaCl, KCl or LiCl, 20 mM HEPES pH 7.4, 1 mM DTT, 22-25 C, 375 or 750 pM oligo, Kd,app +/- SEM, EMSA: 20 mM HEPES pH 7.4, 200 mM KCl, 1 nM 32P oligo
Sequence of CST (CTC1-STN1-TEN1) (human) (Q2NKJ3 whole entry, chain 1 of 3): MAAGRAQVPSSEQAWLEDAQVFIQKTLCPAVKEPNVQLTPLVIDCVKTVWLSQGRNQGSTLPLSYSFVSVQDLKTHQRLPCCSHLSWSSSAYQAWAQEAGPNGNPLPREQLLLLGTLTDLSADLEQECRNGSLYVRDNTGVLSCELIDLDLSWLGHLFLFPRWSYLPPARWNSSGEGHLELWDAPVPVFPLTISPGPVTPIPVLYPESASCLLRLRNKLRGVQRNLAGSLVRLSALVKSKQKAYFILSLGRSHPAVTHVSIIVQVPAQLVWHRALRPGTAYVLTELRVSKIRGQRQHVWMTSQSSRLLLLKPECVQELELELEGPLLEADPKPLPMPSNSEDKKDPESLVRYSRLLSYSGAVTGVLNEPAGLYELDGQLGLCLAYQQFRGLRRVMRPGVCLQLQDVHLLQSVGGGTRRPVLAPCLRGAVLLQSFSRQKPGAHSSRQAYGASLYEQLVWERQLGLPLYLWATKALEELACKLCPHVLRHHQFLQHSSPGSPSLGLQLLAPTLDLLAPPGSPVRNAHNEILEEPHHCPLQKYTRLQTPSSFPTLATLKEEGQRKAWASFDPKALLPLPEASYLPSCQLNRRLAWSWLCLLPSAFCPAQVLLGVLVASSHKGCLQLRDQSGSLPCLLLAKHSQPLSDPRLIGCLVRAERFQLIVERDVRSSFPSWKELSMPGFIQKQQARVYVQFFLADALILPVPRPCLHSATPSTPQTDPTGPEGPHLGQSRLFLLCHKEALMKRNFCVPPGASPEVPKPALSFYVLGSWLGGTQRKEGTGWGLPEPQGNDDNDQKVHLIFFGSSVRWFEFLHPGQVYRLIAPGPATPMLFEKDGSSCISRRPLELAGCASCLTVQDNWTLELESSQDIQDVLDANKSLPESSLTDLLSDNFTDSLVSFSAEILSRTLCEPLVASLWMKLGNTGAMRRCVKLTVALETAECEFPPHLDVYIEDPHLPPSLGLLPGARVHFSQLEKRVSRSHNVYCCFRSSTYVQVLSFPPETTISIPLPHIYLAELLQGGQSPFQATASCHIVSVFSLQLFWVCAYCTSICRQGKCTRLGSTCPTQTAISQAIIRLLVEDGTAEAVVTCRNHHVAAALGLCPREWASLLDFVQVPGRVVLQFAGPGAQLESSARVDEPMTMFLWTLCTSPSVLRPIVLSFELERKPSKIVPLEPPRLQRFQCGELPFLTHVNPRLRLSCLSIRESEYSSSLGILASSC
Sequence of CST (CTC1-STN1-TEN1) (human) (Q9H668 whole entry, chain 2 of 3): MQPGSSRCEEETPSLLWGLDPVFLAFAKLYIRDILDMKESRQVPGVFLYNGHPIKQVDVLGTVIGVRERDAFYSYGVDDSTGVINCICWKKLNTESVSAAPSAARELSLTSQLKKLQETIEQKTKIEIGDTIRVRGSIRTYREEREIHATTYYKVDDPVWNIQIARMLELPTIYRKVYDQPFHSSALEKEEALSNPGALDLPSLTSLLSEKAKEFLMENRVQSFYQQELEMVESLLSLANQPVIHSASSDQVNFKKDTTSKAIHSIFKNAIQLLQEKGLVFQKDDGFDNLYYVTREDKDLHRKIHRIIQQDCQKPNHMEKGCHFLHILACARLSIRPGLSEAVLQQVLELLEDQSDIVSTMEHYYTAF
Sequence of CST (CTC1-STN1-TEN1) (human) (Q86WV5 whole entry, chain 3 of 3): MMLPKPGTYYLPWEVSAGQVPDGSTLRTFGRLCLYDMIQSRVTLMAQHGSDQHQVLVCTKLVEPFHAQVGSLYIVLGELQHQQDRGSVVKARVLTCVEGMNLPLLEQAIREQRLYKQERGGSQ

[7] = test system: RPA AroC (human); conditions: FA: 200 mM NaCl, KCl or LiCl, 20 mM HEPES pH 7.4, 1 mM DTT, 22-25 C, 375 or 750 pM oligo, Kd,app +/- SEM; EMSA: 20 mM HEPES pH 7.4, 200 mM KCl, 1 nM 32P oligo
[8] = test system: RPA AroB (human); conditions: FA: 200 mM NaCl, KCl or LiCl, 20 mM HEPES pH 7.4, 1 mM DTT, 22-25 C, 375 or 750 pM oligo, Kd,app +/- SEM; EMSA: 20 mM HEPES pH 7.4, 200 mM KCl, 1 nM 32P oligo

Tel18
Kd [1]: 4.7 nM and 2.5 nM and 5.6 nM
Kd [2]: 0.24 nM and 0.56 nM and 0.65 nM
Kd [3]: 0.73 nM and 0.5 nM and 0.66 nM
Kd [4]: 3.5 nM and 9.1 nM and 5.1 nM
Kd [5]: 0.79 nM and 0.34 nM and 0.36 nM
Kd ([6]; 200 mM LiCl): 6.7 nM
Kd [6]: 7.7 nM and 9.3 nM
Kd [7]: 0.59 nM and 0.26 nM and 0.49 nM
Kd [8]: 0.5 nM and 0.66 nM and 0.45 nM

Tel22
Kd [3]: 1.23 nM and 1.99 nM and 0.35 nM
Kd [5]: 2.4 nM and 2.5 nM and 0.36 nM
Kd ([6]; 200 mM KCl, printed >=, incomplete curve): > 340 nM
Kd ([6]; 200 mM LiCl): 6.7 nM
Kd [6]: 106 nM

Tel30
Kd [3]: 0.96 nM and 0.81 nM and 0.32 nM
Kd [5]: 0.48 nM and 0.77 nM and 0.29 nM
Kd ([6]; 200 mM LiCl): 5.2 nM
Kd [6]: 67 nM and 112 nM
Kd [7]: 0.62 nM and 1.62 nM and 0.28 nM
Kd [8]: 1.07 nM and 1.9 nM and 0.36 nM

Tel40
Kd [3]: 1.3 nM and 1.1 nM and 0.9 nM
Kd ([6]; 200 mM LiCl): 0.73 nM
Kd [6]: 0.74 nM and 1.1 nM

Tel60
Kd [3]: 0.79 nM and 0.69 nM and 0.8 nM
Kd ([6]; 200 mM LiCl): 1.2 nM
Kd [6]: 10.6 nM and 9 nM
